Experimental data reported in patent CN107840889A (SHANGHAI JIBEI BIOLOGICAL TECH CO LTD, dated 2018).
Values joined by “and” are separate entries in the source; they are usually repeats but may differ in a detail not shown here. Identical values can stand only once.

T1: CD123-his-biotin抗原 (Homo sapiens (Human), UniProt P26951 19-305, biotin label (site not stated))
T1 construct: Bought from SinoBiological and biotin-labelled; also called CD123-Biotin; CD123抗原; not shown: his tag
T1 sequence: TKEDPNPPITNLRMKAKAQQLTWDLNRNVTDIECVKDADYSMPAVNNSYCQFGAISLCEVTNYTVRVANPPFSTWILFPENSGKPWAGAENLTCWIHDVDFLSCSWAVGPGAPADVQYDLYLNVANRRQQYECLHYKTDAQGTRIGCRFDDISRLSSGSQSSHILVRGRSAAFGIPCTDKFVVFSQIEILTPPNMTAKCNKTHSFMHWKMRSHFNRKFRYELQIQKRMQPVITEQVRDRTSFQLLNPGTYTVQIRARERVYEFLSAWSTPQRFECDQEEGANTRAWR

B1: scFv 26292 (scFv, V domains shown)
VH: QVQLQQPGAELVRPGASVKLSCKASGYTFTSYWMNWVKQRPDQGLEWIGRIDPYDSETHYNQKFKDKAILTVDKSSSTAYMQLSSLTSEDSAVYYCARGNWDDYWGQGTTLTVSS
VL: DVQITQSPSYLAASPGETITINCRASKSISKDLAWYQEKPGKTNKLLIYSGSTLQSGIPSRFSGSGSGTDFTLTISSLEPEDFAMYYCQQHNKYPYTFGGGTKLEIK
notes: Tested as an scFv in periplasmic extract of TG1 (pCANTAB 5E vector)
B2: 2D2 (scFv, V domains shown)
VH: QVQLQQPGAELVRPGASVKLSCKASGYKFQSYWMNWVKQRPDQGLEWIGRIDPYDSETHYNQKFKDKAILTVDKSSSTAYMQLSSLTSEDSAVYYCARGNWDDYWGQGTTLTVSS
VL: DVQITQSPSYLAASPGETITINCRASKSISKDLAWYQEKPGKTNKLLIYSGSTLQSGIPSRFSGSGSGTDFTLTISSLEPEDFAMYYCQQHNKYPYTFGGGTKLEIK
notes: also called 抗体2D2
B3: 6G9 (scFv, V domains shown)
VH: QVQLQQPGAELVRPGASVKLSCKASGYTFTSYWMNWVKQRPDQGLEWIGRIDPYDSETHYNQKFKDKAILTVDKSSSTAYMQLSSLTSEDSAVYYCARGNWDDYWGQGTTLTVSS
VL: DVQITQSPSYLAASPGETITINCCASNSINKDLIWYQEKPGKTNKLLIYSGSTLQSGIPSRFSGSGSGTDFTLTISSLEPEDFAMYYCQQHNKYPYTFGGGTKLEIK
B4: 3F8 (scFv, V domains shown)
VH: QVQLQQPGAELVRPGASVKLSCKASGYTFTQYWMNWVKQRPDQGLEWIGRIDPYDSETHYNQKFKDKAILTVDKSSSTAYMQLSSLTSEDSAVYYCARGISQDFWGQGTTLTVSS
VL: DVQITQSPSYLAASPGETITINCRASKSISKDLAWYQEKPGKTNKLLIYSGSTLQSGIPSRFSGSGSGTDFTLTISSLEPEDFAMYYCQQHNKYPYTFGGGTKLEIK
B5: 7F1 (scFv, V domains shown)
VH: QVQLQQPGAELVRPGASVKLSCKASGYTFTSYWMNWVKQRPDQGLEWIGRIDPYDSETHYNQKFKDKAILTVDKSSSTAYMQLSSLTSEDSAVYYCARGNWDDYWGQGTTLTVSS
VL: DVQITQSPSYLAASPGETITINCRASKSISKDLAWYQEKPGKTNKLLIYSGSTLQSGIPSRFSGSGSGTDFTLTISSLEPEDFAMYYCQQSNKYPYTFGGGTKLEIK
notes: also called 抗体7F1
B6: 4D1 (scFv, V domains shown)
VH: QVQLQQPGAELVRPGASVKLSCKASGYQFTSYWMNWVKQRPDQGLEWIGRIDPYDSETHYNQKFKDKAILTVDKSSSTAYMQLSSLTSEDSAVYYCARGNWDDYWGQGTTLTVSS
VL: DVQITQSPSYLAASPGETITINCRASKSISKDLAWYQEKPGKTNKLLIYSGSTLQSGIPSRFSGSGSGTDFTLTISSLEPEDFAMYYCQQHNKYPYTFGGGTKLEIK
notes: also called 抗体4D1
B7: 5E10 (scFv, V domains shown)
VH: QVQLQQPGAELVRPGASVKLSCKASGYTFTSYWMNWVKQRPDQGLEWIGRIDPYDSETHYNQKFKDKAILTVDKSSSTAYMQLSSLTSEDSAVYYCARGNWDDYWGQGTTLTVSS
VL: DVQITQSPSYLAASPGETITINCRASKSISKDLAWYQEKPGKTNKLLIYSSSQRLSGIPSRFSGSGSGTDFTLTISSLEPEDFAMYYCQQHNKYPYTFGGGTKLEIK
B8: 2C5 (scFv, V domains shown)
VH: QVQLQQPGAELVRPGASVKLSCKASGYTFTQYWMNWVKQRPDQGLEWIGRIDPYDSETHYNQKFKDKAILTVDKSSSTAYMQLSSLTSEDSAVYYCARSQVSDYWGQGTTLTVSS
VL: DVQITQSPSYLAASPGETITINCRASKSISKDLAWYQEKPGKTNKLLIYSGSTLQSGIPSRFSGSGSGTDFTLTISSLEPEDFAMYYCQQHNKYPYTFGGGTKLEIK
B9: 8A7 (scFv, V domains shown)
VH: QVQLQQPGAELVRPGASVKLSCKASGYTFTSYWMNWVKQRPDQGLEWIGRIDPYDSETHYNQKFKDKAILTVDKSSSTAYMQLSSLTSEDSAVYYCARGNWDDYWGQGTTLTVSS
VL: DVQITQSPSYLAASPGETITINCRASKSISKDLAWYQEKPGKTNKLLIYSGSTLQSGIPSRFSGSGSGTDFTLTISSLEPEDFAMYYCQQTNRYPYTFGGGTKLEIK
notes: 31 is used here; also called 抗体8A7
B10: 5B1 (scFv, V domains shown)
VH: QVQLQQPGAELVRPGASVKLSCKASGYTFTSYWMNWVKQRPDQGLEWIGRIDPYDSETHYNQKFKDKAILTVDKSSSTAYMQLSSLTSEDSAVYYCARGNWDDYWGQGTTLTVSS
VL: DVQITQSPSYLAASPGETITINCRASKSISKDLAWYQEKPGKTNKLLIYSGSTLQSGIPSRFSGSGSGTDFTLTISSLEPEDFAMYYCQQHNRYPYTFGGGTKLEIK
B11: 6G3 (scFv, V domains shown)
VH: QVQLQQPGAELVRPGASVKLSCKASGYTFTSYWMNWVKQRPDQGLEWIGRIDPYDSETHYNQKFKDKAILTVDKSSSTAYMQLSSLTSEDSAVYYCARGNWDDYWGQGTTLTVSS
VL: DVQITQSPSYLAASPGETITINCRASKSISKDLAWYQEKPGKTNKLLIYSSSRLSSGIPSRFSGSGSGTDFTLTISSLEPEDFAMYYCQQHNKYPYTFGGGTKLEIK
notes: also called 抗体6G3
B12: 4A6 (scFv, V domains shown)
VH: QVQLQQPGAELVRPGASVKLSCKASGYTFQSYWMNWVKQRPDQGLEWIGRIDPYDSETHYNQKFKDKAILTVDKSSSTAYMQLSSLTSEDSAVYYCARGNWDDYWGQGTTLTVSS
VL: DVQITQSPSYLAASPGETITINCRASKSISKDLAWYQEKPGKTNKLLIYSGSTLQSGIPSRFSGSGSGTDFTLTISSLEPEDFAMYYCQQHNKYPYTFGGGTKLEIK
B13: 7G8 (scFv, V domains shown)
VH: QVQLQQPGAELVRPGASVKLSCKASGYTFTSYWMNWVKQRPDQGLEWIGRIDPYDSETHYNQKFKDKAILTVDKSSSTAYMQLSSLTSEDSAVYYCARGNWDDYWGQGTTLTVSS
VL: DVQITQSPSYLAASPGETITINCRASKSISKDLAWYQEKPGKTNKLLIYDASRRGSGIPSRFSGSGSGTDFTLTISSLEPEDFAMYYCQQHNKYPYTFGGGTKLEIK
notes: also called 抗体7G8
B14: 4C3 (scFv, V domains shown)
VH: QVQLQQPGAELVRPGASVKLSCKASGYTFTQYWMNWVKQRPDQGLEWIGRIDPFDSETHYNLQFKDKAILTVDKSSSTAYMQLSSLTSEDSAVYYCARGNWDDYWGQGTTLTVSS
VL: DVQITQSPSYLAASPGETITINCRASKSISKDLAWYQEKPGKTNKLLIYSGSTLQSGIPSRFSGSGSGTDFTLTISSLEPEDFAMYYCQQHNKYPYTFGGGTKLEIK

These binders were tested against T1, CD123-his-biotin抗原 (assay: BLI (Octet RED96), CD123-Biotin on AR2G sensor, scFv periplasmic extract as analyte).
Design: 响应: unit not given here
For B1, the koff was 0.000206 s⁻¹ and 0.00021 s⁻¹ and 0.000209 s⁻¹ and 0.000207 s⁻¹.
B2 showed a koff of 0.00014 s⁻¹ and a 响应 of 0.145.
B3 was tested, and the koff was 0.000318 s⁻¹ and the 响应 was 0.163.
B4 showed a koff of 0.000558 s⁻¹ and a 响应 of 0.207.
B5 showed a koff of 2.47e-05 s⁻¹ and a 响应 of 0.486.
Work on B6 yielded a koff of 0.000198 s⁻¹ and a 响应 of 0.25.
In the case of B7, the koff is reported as 0.000254 s⁻¹ and the 响应 is reported as 0.24.
B8 gave a koff of 0.000502 s⁻¹ and a 响应 of 0.177.
B9 was tested, and the koff was 0.000178 s⁻¹ and the 响应 was 0.471.
Work on B10 yielded a koff of 0.00012 s⁻¹ and a 响应 of 0.422.
Work on B11 yielded a koff of 0.000192 s⁻¹ and a 响应 of 0.425.
B12 gave a koff of 0.000323 s⁻¹ and a 响应 of 0.106.
For B13, the koff was 0.000127 s⁻¹ and the 响应 was 0.463.
Work on B14 yielded a koff of 0.000322 s⁻¹ and a 响应 of 0.083.
